From patent US20200234789A1, “DESIGNED PROTEINS FOR LIGAND BINDING” (THE REGENTS OF THE UNIVERSITY OF CALIFORNIA, priority 2017, published 2020)

B1: PS1 D103-109: PS1 variant with 7 terminal residues near the ligand binding site deleted, SEQ ID NO:8 (protein)
chain: EFEKLRQTGDELVQAFQRLREIFDKGDDDSLEQVLEEIEELIQKHRQLFDNRQEAADTEAAKQGDQWVQLFQRFREAIDKGDKDSLEQLLEELEQALQKIR
B2: PS2: second designed porphyrin-binding protein with redesigned core (Ser94, Trp68), SEQ ID NO:7 (protein)
chain: SEFEKLRQTGDEIIQLLQRLREAIDKGDDDSLEQILEELEEAFQKHRQLFENRQEAADTEFAKQGDQWLQLFQRIREAIDKGDKDSLEQLFEESEQGIQKIRELAEKKN

Experiments:
[1] = Binding of endogenous heme on expression in E. coli (absorption spectra); type: cell-based; conditions: expressed in E. coli, Soret and Q bands at 410 and 550 nm
Description: FIGS. 18A-18B. enFold proteins are capable of noncovalently binding endogenous ligands in the cell. […] Inset: E. coli cultures of after induction). FIG. 18B: Denovo proteins from binary sequence patterning. Previous studies have only been able to incorporate heme exogenously, i.e. after expression and purification, heme is added to the purified apo-protein. See Patel et al, Protein Science, 18:1388-1400.
The computational method described here is capable of producing proteins that noncovalently bind ligands in vivo. We have observed loading of endogenous heme in a PS1 variant, where 7 terminal residues near the binding ligand site were deleted to allow incorporation of a heme ligand with its bulky, charged proprionate functional groups (FIG. 16). […] These apo-proteins remain competent to bind an endogenous ligand, for example heme (FIG. 17 and FIGS. 18A-18B). These proteins are the first de novo designed proteins to our knowledge that noncovalently bind heme in vivo.

[2] = Porphyrin binding to apo-protein, electronic absorption spectra ((CF3)4PZn loading)
Description: FIGS. 3A-3D. Biophysical characterization of apo- and holo-PS1. FIG. 3A: Electronic absorption and emission spectra of (CF3)4PZn/PS1 holo-protein and (CF3)4PZn in toluene solvent. […] FIG. 3B: Determination of KD by apo-PS1 titration into a buffer solution (100 mM NaCl, 50 mM NaPi, pH 7.5) of (CF3)4PZn with 1% w/v octyl-b-D-glucopyranoside. […] FIG. 3C: Circular dichroism (CD) spectra of apo- and holo-PS1 in 50 mM NaPi, 100 mM NaCl, pH 7.5 as a function of temperature. The transitions appear reversible based on the fact that the spectra are identical after cooling to room temperature. Units are in molar residue ellipticity. […] FIG. 3D: Pump-probe transient absorption spectra of (CF3)4PZn bound in the interior of holo-PS1 at 21° C. and 100° C. […] Inset exemplifies identical transient dynamics (primarily intersystem crossing from S1 to T1) at ΔAbs.=482 nm (scaled). Experimental conditions: solvent=50 mM NaPi, 100 mM NaCl, pH 7.5; excitation wavelength=600±5 nm; magic-angle polarization between pump and probe pulses; pump-probe cross-correlation of ˜250 fs.
FIG. 10. Absorption spectra of (CF3)4PZn/PS1 and (CF3)4PZn/PS2 complexes. […] Experimental conditions: buffer=100 mM NaCl, 50 mM NaPi, pH 7.5.
A 2-fold excess of the cofactor (CF3)4PZn was added from a 4 mM DMSO stock solution to a 50 mM NaPi, 100 mM NaCl, pH 7.5 buffer with apo-protein (Note that final DMSO concentrations were kept <1%.). Buffer solution of apo-PS1 protein was heated for 5 minutes at 50° C., (CF3)4PZn was then added from the DMSO stock solution, the resultant mixture was vortexed for 5 seconds, and placed back in the heat block at 50° C. for 15 minutes, with vortexing every 3 minutes. The protein/cofactor solution was then spun at 14000×g in a Amicon Ultra-0.5 mL centrifuge filter for 10 min, three times, replacing the buffer to 0.5 mL after each 10 min spin. Finally, the protein solution was spun for 4 min at 12000×g in an Amicon ultrafree-MC GV filter (UFC30GV0S). The holo-PS1 sample was then used for spectroscopic experiments immediately afterward, and diluted to an appropriate concentration if necessary. Binding of (CF3)4PFe was carried out in the same fashion, with the exception that the porphyrin was first dissolved in a stock of DMSO/CHCl3.
Electronic absorption spectra were collected using a Shimadzu UV-1700 UV-Vis spectrophotometer or Cary 5000 spectrophotometer. Steady-state emission spectra were obtained on FLS920P spectrophotometer (Edinburgh Instruments Ltd. Livingston, UK) in 1 cm quartz optical cells. The steady-state emission spectra were corrected using the correction factor generated by the manufacturer.

| Molecule | binding / loading of endogenous heme [1] | binding / loading of endogenous heme ([1]; listed as PS1 deletion variant) | porphyrin loading ([2]; (CF3)4PZn, based on absorbance at 280 nm and 423 nm, 100 mM NaCl, 50 mM NaPi, pH 7.5) [%] | binding of (CF3)4PZn ([2]; narrow electronic absorption bands of the porphyrin) |
| --- | --- | --- | --- | --- |
| B1 | high loading of endogenous heme | binds endogenous heme |  |  |
| B2 |  |  | 100 | bound (CF3)4PZn in a homogenous environment |
